Values quoted from earlier work in publication PMC6438182.

Biological target: GATAD2A coiled-coil (Homo sapiens) (UniProt Q86YP4)
Sequence of UniProt Q86YP4 (Q86YP4 137-178): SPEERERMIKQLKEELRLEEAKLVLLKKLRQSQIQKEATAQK

- Kd: 42 nM
Substance: MBD2 coiled-coil (from UniProt Q9UBB5)
